In assay [1] the target is T1, FcRL2, overexpressed on 3T3 cells (UniProt Q96LA5 20-508, limits assumed).
T1 construct: whole, on cells
T1 sequence (looked up): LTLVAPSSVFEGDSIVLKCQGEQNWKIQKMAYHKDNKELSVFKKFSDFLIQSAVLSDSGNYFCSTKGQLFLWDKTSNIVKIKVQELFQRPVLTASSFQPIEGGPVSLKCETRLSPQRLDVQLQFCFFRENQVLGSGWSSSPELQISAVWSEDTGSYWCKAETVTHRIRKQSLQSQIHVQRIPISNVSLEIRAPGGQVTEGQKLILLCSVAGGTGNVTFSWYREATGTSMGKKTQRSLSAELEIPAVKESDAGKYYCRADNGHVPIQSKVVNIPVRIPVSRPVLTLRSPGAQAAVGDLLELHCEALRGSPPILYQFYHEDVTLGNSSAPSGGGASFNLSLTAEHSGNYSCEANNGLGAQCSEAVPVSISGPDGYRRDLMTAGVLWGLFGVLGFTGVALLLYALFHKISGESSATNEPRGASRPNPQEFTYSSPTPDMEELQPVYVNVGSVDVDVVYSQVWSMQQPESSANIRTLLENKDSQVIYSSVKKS
The experiment in a line: phage clone on 3T3-FcRL2 cells.

Assay [2] concerns the target T2, FcRL1, overexpressed on 3T3 cells (UniProt Q96LA6 17-429, limits assumed).
T2 construct: whole, on cells
T2 sequence (looked up): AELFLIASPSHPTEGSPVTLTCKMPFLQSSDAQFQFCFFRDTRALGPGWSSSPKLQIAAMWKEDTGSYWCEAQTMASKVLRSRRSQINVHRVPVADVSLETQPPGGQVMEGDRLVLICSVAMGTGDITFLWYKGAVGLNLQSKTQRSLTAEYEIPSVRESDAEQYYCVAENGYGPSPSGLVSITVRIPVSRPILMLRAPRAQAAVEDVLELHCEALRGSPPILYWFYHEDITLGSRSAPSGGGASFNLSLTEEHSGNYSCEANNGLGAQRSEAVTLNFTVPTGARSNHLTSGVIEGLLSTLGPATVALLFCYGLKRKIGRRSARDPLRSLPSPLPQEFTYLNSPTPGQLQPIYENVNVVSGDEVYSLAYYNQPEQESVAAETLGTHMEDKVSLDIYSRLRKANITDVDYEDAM
The experiment in a line: phage clone on 3T3-FcRL1 cells.

Assay [3] deals with T3, Fc Receptor-like 5 (FcRL5), full length, overexpressed on 3T3 or Raji cells (human, UniProt Q96RD9 16-977).
T3 construct: also called 3T3-FcRL5
T3 sequence: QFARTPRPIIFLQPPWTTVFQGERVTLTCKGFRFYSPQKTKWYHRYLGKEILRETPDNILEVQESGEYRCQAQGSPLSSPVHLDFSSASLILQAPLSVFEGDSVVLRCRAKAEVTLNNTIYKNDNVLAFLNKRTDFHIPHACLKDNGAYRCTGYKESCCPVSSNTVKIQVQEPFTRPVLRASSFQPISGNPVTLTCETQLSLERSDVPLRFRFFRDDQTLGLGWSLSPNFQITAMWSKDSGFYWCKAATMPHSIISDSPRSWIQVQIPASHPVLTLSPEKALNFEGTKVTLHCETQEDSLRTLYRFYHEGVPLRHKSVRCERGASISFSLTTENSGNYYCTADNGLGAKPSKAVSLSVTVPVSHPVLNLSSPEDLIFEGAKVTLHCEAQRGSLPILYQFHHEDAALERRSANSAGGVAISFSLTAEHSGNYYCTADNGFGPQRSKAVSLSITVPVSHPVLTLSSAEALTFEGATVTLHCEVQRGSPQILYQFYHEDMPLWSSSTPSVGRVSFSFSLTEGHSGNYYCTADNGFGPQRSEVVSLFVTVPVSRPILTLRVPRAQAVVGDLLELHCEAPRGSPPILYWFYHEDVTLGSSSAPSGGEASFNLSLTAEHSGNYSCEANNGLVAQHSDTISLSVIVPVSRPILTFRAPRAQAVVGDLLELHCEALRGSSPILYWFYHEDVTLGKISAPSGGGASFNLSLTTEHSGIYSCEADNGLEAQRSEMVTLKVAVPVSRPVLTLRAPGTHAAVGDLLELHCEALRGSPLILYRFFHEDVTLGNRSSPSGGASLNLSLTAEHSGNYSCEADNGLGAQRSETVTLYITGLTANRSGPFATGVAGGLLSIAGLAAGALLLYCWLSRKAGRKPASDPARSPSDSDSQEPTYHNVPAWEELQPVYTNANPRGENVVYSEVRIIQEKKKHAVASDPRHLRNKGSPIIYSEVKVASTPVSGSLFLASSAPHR
The experiment in a line: phage clone screening on cells. As for the experimental part:
Once selected, positive scFv clones are further tested for their binding to FcRL5 (e.g., human FcRL5) on live 3T3 cell surfaces by flow cytometry. Briefly, phage clones are incubated with 3T3 cells over-expressing FcRL5. The cells are washed and then incubated with a mouse anti-M13 coat protein mAb. Cells are washed again and labeled with a PE-horse anti-mouse Ig prior to flow cytometry.
Phage′ display against FcRL5 was performed to enrich for scFv phage clones that bind to FcRL5 specifically. Screening was carried out on FcRL5 overexpressing 3T3 cells or 3T3 cells expressing FcRL1, 2, 3, 4 or 6 as a negative control (FIG. 2).

Assay [4] has as its target T4, FcRL3, overexpressed on 3T3 cells (UniProt Q96P31 18-734, limits assumed).
T4 construct: whole, on cells
T4 sequence (looked up): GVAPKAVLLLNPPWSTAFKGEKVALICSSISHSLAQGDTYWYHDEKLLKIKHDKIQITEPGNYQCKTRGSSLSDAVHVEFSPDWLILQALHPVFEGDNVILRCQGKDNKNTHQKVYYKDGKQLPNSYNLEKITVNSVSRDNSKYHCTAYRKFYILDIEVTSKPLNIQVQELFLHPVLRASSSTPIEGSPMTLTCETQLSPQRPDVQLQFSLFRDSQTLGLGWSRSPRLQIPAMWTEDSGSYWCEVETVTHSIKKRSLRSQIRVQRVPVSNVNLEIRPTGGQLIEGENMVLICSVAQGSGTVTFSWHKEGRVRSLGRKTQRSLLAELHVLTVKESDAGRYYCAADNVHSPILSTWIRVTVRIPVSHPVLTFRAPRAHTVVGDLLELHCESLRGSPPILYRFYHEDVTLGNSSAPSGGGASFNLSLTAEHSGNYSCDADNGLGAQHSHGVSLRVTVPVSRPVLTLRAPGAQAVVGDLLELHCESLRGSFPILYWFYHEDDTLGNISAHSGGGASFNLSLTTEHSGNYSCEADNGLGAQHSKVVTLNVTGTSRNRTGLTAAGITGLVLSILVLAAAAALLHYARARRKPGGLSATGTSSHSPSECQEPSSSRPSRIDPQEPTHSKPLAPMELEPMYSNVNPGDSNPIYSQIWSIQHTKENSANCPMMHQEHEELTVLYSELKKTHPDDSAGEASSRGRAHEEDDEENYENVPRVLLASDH
The assay can be described thus: phage clone on 3T3-FcRL3 cells.

Another assay has as its target SLAMF9 protein (UniProt Q96A28 19-236, limits assumed). The experiment in a line: phage clone on SLAMF9 protein.

Results on seven molecules are retold here after US20210388081A1 (Memorial Sloan Kettering, published 2021).

Sequence of SLAMF9 protein (Q96A28 19-236 limits assumed): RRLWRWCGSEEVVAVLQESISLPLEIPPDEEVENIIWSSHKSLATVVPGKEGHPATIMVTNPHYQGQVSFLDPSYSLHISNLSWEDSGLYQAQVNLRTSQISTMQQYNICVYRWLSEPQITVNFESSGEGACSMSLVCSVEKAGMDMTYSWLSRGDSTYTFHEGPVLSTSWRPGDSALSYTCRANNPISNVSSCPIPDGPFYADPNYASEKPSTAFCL

B1: ET200-018 (scFv)
scFv: QAVLTQPPSTSGTPGQRVTISCSGSSSNIGRNGVNWYQQLPGAAPKVLIYNDNQRPSGVPDRVSGSQSGSSGTLAIDGLRSEDEADYYCAAWDDSLHGVVFGGGTKLTVLGSRGGGGSGGGGSGGGGSLEMAQVQLVQSGAEVKKPGASVKVSCKVSGYTLNELSMHWVRQAPGKGLEWMGGFDPEDGETIYAQKFQGRVTMTEDTSTDTAYMELSSLRSEDTAVYYCARGGYGDSWGQGTLVTVSSTSGQAGQHHHHHHGAYPYDVPDYAS
notes: screened as phage clone; entry is VL-linker-VH-His tag-HA tag
For the molecule B1, the binding result in assay [1] is “no binding”; in assay [2], “no binding”; in assay [3], “binds”; in assay [4], “no binding”; in the assay with SLAMF9 protein it was “no binding”.

B2: ET200-022 (scFv)
scFv: QSVVTQPPSVSAAPGQKVTISCSGSSSNIGNNYVSWYQQLPGTAPKLLIYDNNKRPSGIPDRFSGSKSGTSATLGITGLQTGDEADYYCGTWDSSLGAPYVFGTGTKVTVLGSRGGGGSGGGGSGGGGSLEMAEVQLVQSWGGSEQPGRSLRLSCAASGFTFDDYAMHWVRQAPGKGLEWVSGISWNSGSIGYADSVKGRFTISRDNAKNSLYLQMNSLRAEDTAMYYCARYRQVGSAYDSWGQGTLVTVSSTSGQAGQHHHHHHGAYPYDVPDYAS
notes: as for B1
As to B2, the binding result in assay [1] is on record as “no binding”; in assay [2], “no binding”; in assay [3] it was “binds”; in assay [4], “no binding”; with SLAMF9 protein, “no binding”.

B3: ET200-021 (scFv)
scFv: QSVLTQPPSVSAAPGQKVTISCSGSNSNIGNNYVSWYQQLPGTAPKLLIYDNNKRPSGIPDRFSGSRSGTSATLGITGLQTGDEADYYCGTWNTTVTPGYVFGTGTKVTVLGSRGGGGSGGGGSGGGGSLEMAEVQLVQSGAEVKKPGASVKVSCKASGYTFTSYGISWVRQAPGQGLEWMGWISAYNGNTNYAQKLQGRVTMTTDTSTSTAYMELRSLRSDDTAMYYCARSVYDLDTWGQGTLVTVSSTSGQAGQHHHHHHGAYPYDVPDYAS
notes: as for B1
For B3, the binding result in assay [1] is reported as “no binding”; in assay [2], “no binding”; in assay [3], “binds”; in assay [4], “no binding”; with SLAMF9 protein it was “no binding”.

B4: ET200-039 (scFv)
scFv: NFMLTQPHSVSESPGKTVTISCTRSSGSIASNYVQWYQQRPGSSPTTVIYEDNQRPSGVPDRFSGSIDSSSNSASLTISGLKTEDEADYYCQSYDSSNWVFGGGTKLTVLGSRGGGGSGGGGSGGGGSLEMAEVQLVQSGAEVKKPGSSVKVSCKASGGTFSSYAISWVRQAPGQGLEWMGGIIPIFGTANYAQKFQGRVTITADESTSTAYMELSSLRSEDTAVYYCARSNYYYNDYWGQGTLVTVSSTSGQAGQHHHHHHGAYPYDVPDYAS
notes: screened as phage clone; entry is VL-linker-VH-His tag-HA tag; also called ET200-39
Turning to B4, the binding result in assay [1] is “no binding”; in assay [2], “no binding”; in assay [3], “binds”; in assay [4] it was “no binding”; in the assay with SLAMF9 protein it was “no binding”.

B5: ET200-020 (scFv)
scFv: QSVVTQPPSVSAAPGQKVTISCSGSTSNIGNNDVSWYQQLPGTAPKLLIYDNNKRPSGIPDRFSGSKSGTSATLGITGLQTGDEADYYCGTWDSSVSASWVFGRGTKLTVLGSRGGGGSGGGGSGGGGSLEMAQVQLVQSGAEVKKPGASVKVSCKASGYTFTSYGISWVRQAPGQGLEWMGWISAYNGNTNYPQKLQGRVTMTTDPSTSTAYMELRSLRSDDTAVYYCARSMTSFDYWGQGTLVTVSSTSGQAGQHHHHHHGAYPYDVPDYAS
notes: as for B1
Consider B5, for which the binding result is listed as “no binding” in assay [1]; “no binding” in assay [2]; “binds” in assay [3]; “no binding” in assay [4]; “no binding” with SLAMF9 protein.

B6: ET200-023 (scFv)
scFv: LPVLTQPPSVSVAPGKTARITCGGNNIGSKSVHWYQQKPGQAPVLVVYADSDRPSGIPERFSGSNSGNTATLTISRVEAGDEADYYCQVWDSSSYHNYVFGTGTKVTVLGSRGGGGSGGGGSGGGGSLEMAEVQLVQSGAEVKKPGASVKVSCKASGYTFTSYGISWVRQAPGQGLEWMGWISAYNGNTNYAQKLQGRVTMTTDTSTSTAYMELSSLRSEDTAMYYCARYWGFGVSDRWGQGTLVTVSSTSGQAGQHHHHHHGAYPYDVPDYAS
notes: as for B1
Take B6: the binding result in assay [1] is reported as “no binding”; in assay [2] it was “no binding”; in assay [3], “binds”; in assay [4], “no binding”; with SLAMF9 protein, “no binding”.

B7: ET200-019 (scFv)
scFv: NFMLTQPHSVSESPGKTVTISCTRSSGSIASNYVQWYQQRPGSAPTTVIYEDNQRPSGVPDRFSGSIDSSSNSASLTISGLKTEDEADYYCQSYDSSNSWVFGGGTKLTVLGSRGGGGSGGGGSGGGGSLEMAQVQLVQSGAEVKRPGSSVKVSCTASGGTFSSDAISWVRQAPGQGLEWMGGIIPMFGTANYAQKFQGRVTITADESTSTAYMELSSLRSEDTAVYYCAREGYYYPSAYLGSVLNDISSVYDEWGQGTLVTVSSTSGQAGQHHHHHHGAYPYDVPDYAS
notes: as for B1
On to B7, for which the binding result in assay [1] is listed as “no binding”; in assay [2], “no binding”; in assay [3] it was “binds”; in assay [4], “no binding”; with SLAMF9 protein it was “no binding”.
